In patent US20090175866A1, “TREATMENT OF B-CELL MALIGNANCIES” (priority 2004, published 2009):

Experiments:
WT FGFR3 = target: T1, WT FGFR3 (Homo sapiens, UniProt P22607); experiment: Flow cytometry binding of PRO-001 Fab to B9-FGFR3^WT cells, with or without FGF
T1 construct: expressed in transfected cells; host or cells: B9 cells
Description: FIG. 1A is a flow cytometry chart showing B9-FGFR WT (wild type) cells fluorescently labeled with PRO 001 followed by a PE-conjugated anti-human secondary antibody. The filled histogram indicates parental B9 cells (lacking FGFR3 expression); the dotted light line, B9-FGFR WT without aFGF; the solid dark line, B9-WT in the presence of aFGF. The Y axis represents counts indicating the amount of cells. The X axis represents fluorescence intensity.
Cells (5×10^5) were washed in cold phosphate-buffered saline (PBS) and then incubated for 30 minutes with one of the following: PRO-001 Fab or a human Fab control antibody, rabbit anti-FGFR3 (100) or rabbit preimmune serum in PBS. The cells were then stained with PE-conjugated goat antihuman F(ab′)2 secondary antibody or goat anti-rabbit IgG-PE for 30 minutes on ice. Flow cytometry was performed on a FACSCaliber flow cytometer (BD Biosciences, San Jose, Calif.) and analyzed using Cellquest software (Becton Dickinson). To assess the ability of FGF ligand to compete for binding, cells were incubated in the presence or absence of 30 ng/ml FGF and 5 μg/ml heparin for 30 minutes and then stained with PRO-001 Fab as describe above.
The human anti-FGFR3 Fab PRO-001 was isolated from the Hu-CAL®-Fab-1 human combinatorial library using a differential whole cell panning approach (Rauchenberger R, et al. J Biol. Chem. 2003; 278:38194-205). […]

ERK1/2 phosphorylation = ERK1/2 phosphorylation in aFGF-stimulated UTMC2 cells (flow cytometry); format: cell-based, human
Description: FIG. 3 is a flow cytometry chart showing phosphorylation of ERK (Extracellular signal-regulated protein kinase) in UTMC2 cells. The filled histogram represents UTMC2 without FGF stimulation (unstimulated); the light line represents cells stimulated with FGF and treated with a control antibody (FGF/vehicle); the dark line represents cells stimulated with FGF and treated with PRO-001 (FGF/PRO-001).
Determination of ERK1/2 phosphorylation by flow cytometry has been described previously (Chow S, et al., Cytometry 2001; 46:72-78). Cells were serum-starved overnight and then stimulated with 30 ng/ml of aFGF and 10 μg/ml heparin for 10 minutes at 37° C. The cells were immediately fixed by adding 10% formaldehyde directly into the culture medium to obtain a final concentration of 2%. Cells were incubated in fixative for 10 min at 37° C. then on ice for an additional 2 minutes. The cells were permeabilized by adding ice-cold methanol (to a final concentration of 90%) while vortexing and incubated on ice for 30 minutes. […] Flow cytometry was performed on a FACSCaliber® flow cytometer (BD Biosciences, San Jose, Calif.) and analyzed using Cellquest® software (Becton Dickinson).

T1 sequence (P22607 23-806): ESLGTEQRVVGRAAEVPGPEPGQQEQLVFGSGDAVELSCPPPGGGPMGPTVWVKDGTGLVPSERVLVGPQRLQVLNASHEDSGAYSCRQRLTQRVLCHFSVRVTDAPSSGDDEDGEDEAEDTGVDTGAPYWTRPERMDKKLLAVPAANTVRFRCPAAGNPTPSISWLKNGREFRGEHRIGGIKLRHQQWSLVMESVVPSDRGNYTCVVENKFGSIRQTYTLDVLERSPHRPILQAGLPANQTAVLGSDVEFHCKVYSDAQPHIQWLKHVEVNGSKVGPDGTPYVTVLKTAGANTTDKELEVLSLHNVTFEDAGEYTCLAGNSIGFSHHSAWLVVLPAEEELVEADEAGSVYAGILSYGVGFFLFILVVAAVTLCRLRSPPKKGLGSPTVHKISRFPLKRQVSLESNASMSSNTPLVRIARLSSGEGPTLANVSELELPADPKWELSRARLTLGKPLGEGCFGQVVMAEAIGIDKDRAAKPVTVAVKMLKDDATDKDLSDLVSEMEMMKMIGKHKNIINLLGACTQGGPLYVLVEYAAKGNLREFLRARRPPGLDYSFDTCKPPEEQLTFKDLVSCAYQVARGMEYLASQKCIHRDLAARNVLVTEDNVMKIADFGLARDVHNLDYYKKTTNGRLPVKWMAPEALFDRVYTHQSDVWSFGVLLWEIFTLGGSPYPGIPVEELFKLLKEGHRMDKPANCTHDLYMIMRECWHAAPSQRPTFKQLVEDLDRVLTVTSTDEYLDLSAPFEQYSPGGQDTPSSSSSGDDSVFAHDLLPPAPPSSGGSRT

B1: PRO-001: human anti-FGFR3 Fab from HuCAL library; VH-CDR3 SEQ ID NO:1, VL-CDR3 SEQ ID NO:10; VH SEQ ID NO:19, VL SEQ ID NO:28 (antibody, V domains shown)
VH: QVQLQQSGPGLVKPSQTLSLTCAISGDSVSSNSAAWNWIRQSPGRGLEWLGRTYYRSKWYNDYAVSVKSRITINPDTSKNQFSLQLNSVTPEDTAVYYCARSYYPDFDYWGQGTLVTVSS
VL: DIELTQPPSVSVAPGQTARISCSGDALGDKYASWYQQKPGQAPVLVIYDDSDRPSGIPERFSGSNSGNTATLTISGTQAEDEADYYCQSYDGPDLWVFGGGTKLTVLGQ
In the case of B1, the “Binding to B9-FGFR3^WT cells on addition of FGF” value (WT FGFR3; 30 ng/ml FGF and 5 μg/ml heparin) is reported as “can be reduced by addition of FGF”, the “Binding to WT FGFR3 (FACS)” value (WT FGFR3; PRO-001 Fab, B9-FGFR3^WT cells) is reported as “binds to WT FGFR3” and the “Levels of phosphorylated ERK in aFGF-stimulated UTMC2 cells” value (ERK1/2 phosphorylation) is reported as “return to those of unstimulated cells”.
